Our source for the EC50, binding result and Kd values is patent US20220056146A1 (TASRIF PHARMACEUTICAL, published 2022).

Test [1] concerns the target T1, human CD155 (poliovirus receptor, PVR) on cells (U87/U87MG, HAP1) (human, UniProt P15151 21-417).
T1 construct: whole, on cells
T1 sequence (looked up): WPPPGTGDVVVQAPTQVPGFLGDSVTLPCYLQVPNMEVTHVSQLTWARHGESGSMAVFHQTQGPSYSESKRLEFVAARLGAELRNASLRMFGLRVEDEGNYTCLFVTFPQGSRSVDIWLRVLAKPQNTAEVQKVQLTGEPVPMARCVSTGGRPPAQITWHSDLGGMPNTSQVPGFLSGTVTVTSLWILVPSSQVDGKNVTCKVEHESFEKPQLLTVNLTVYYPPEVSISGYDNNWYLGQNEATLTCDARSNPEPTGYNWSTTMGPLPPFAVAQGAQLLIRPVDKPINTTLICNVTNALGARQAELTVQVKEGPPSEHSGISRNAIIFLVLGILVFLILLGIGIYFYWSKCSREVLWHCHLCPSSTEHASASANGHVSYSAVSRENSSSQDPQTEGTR
As to the kind of experiment: cell binding on U-87 cells.

The target in test [2] is T2, African green monkey PVR (CD 155) on Vero cells (African green monkey).
T2 construct: whole, on cells
T2 sequence (P32506 21-417): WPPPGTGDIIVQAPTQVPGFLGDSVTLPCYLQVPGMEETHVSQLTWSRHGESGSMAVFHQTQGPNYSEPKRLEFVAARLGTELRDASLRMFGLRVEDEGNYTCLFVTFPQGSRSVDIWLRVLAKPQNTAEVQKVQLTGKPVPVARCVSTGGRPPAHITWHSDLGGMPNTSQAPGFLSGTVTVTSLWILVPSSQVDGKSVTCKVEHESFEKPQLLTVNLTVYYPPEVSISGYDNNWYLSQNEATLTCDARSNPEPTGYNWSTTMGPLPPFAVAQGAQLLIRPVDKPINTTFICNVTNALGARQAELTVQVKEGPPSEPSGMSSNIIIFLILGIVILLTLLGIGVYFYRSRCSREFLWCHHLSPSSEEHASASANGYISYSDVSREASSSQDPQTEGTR
As to the kind of experiment: cell binding on Vero cells.

Test [3] has as its target T1, human CD155 (poliovirus receptor, PVR) …. As to the kind of experiment: cell binding on HAP-1 cells.
Test [4] shares this target. Briefly: in vivo fluorescence imaging of mice with U87MG tumors, 72 hours after injection. As for the experimental part: Ab825-VT680 conjugate binds and accumulates in U87MG tumors In Vivo. The control mice were either untreated or treated with VT 680 dye alone.
In test [5] the target is T3, poliovirus receptor (PVR, CD 155), form not stated (UniProt P15151 21-343, limits assumed).
T3 sequence (looked up): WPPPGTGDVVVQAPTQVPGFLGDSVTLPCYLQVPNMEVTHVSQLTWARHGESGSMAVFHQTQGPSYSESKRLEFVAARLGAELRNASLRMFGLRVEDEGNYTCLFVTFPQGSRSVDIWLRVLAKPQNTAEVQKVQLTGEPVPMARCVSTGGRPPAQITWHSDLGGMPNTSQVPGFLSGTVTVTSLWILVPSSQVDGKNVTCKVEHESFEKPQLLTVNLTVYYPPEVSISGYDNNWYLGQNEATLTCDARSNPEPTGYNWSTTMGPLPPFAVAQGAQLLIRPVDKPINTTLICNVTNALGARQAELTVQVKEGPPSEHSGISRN
Briefly: surface plasmon resonance (Biacore). Background: In SPR one partner is held on a chip, and binding of the other changes the refractive index at the surface.

As a reminder, the EC50 is the midpoint of the concentration-response curve. The Kd is the equilibrium constant for the complex coming apart.

B1: Ab825 (VH0/VK0), human IgG1 chimeric antibody (antibody, V domains shown)
VH: EVQLQQSGPELVKPGASVKISCKTSGYTFTEYTMHWVKQSHGKSLEWIGGIHPNNGDTSYNQRFKGKATLTVDKSSSTAYMELRSLTSEDSAVYYCARWTGDFDYWGQGTTLTVST
VL: DIVMTQSPKFMSTSVGDRVSVTCKASQNVGTNVAWYQQKPGQSPKALIYSASYRYSGVPDRFTGSGSGTDFTLTISNVQSEDLAEYFCQQYNSYPYTFGGGTKLEIK
notes: Murine variable regions in a human IgG1 chimeric antibody, derived from D171
For B1, the EC50 in test [1] was found to be 0.0869 µg/mL; in test [2] it was 0.086 µg/mL; in test [3], 0.0487 µg/mL.

B2: Ab825-VT680 conjugate (antibody, V domains shown)
VH: EVQLQQSGPELVKPGASVKISCKTSGYTFTEYTMHWVKQSHGKSLEWIGGIHPNNGDTSYNQRFKGKATLTVDKSSSTAYMELRSLTSEDSAVYYCARWTGDFDYWGQGTTLTVST
VL: DIVMTQSPKFMSTSVGDRVSVTCKASQNVGTNVAWYQQKPGQSPKALIYSASYRYSGVPDRFTGSGSGTDFTLTISNVQSEDLAEYFCQQYNSYPYTFGGGTKLEIK
notes: Ab825 conjugated to the fluorophore VT680; Neither the chain nor the site of conjugation is stated
With B2, the binding result in test [4] is “binds”.

B3: VH4 N54S D56E / VK3 N92E (antibody, V domains shown)
VH: EVQLVQSGSELKKPGASVKVSCKTSGYTFTEYTMHWVRQPHGKGLEWIGGIHPNSGETSYNQRFKGRVTITVDKSTSTAYMELSSLRSEDTAVYYCARWTGDFDYWGQGTLVTVSS
VL: DIQMTQSPSAMSASVGDRVTITCKASQNVGTNVAWYQQKPGQPPKALIYSASYRYSGVPDRFSGSGSGTDFTLTISSLQAEDLAEYFCQQYESYPYTFGQGTKLEIK
notes: Humanized variant of Ab825; also called antibody (vi)
As for B3, the EC50 in test [1] was determined as 0.585 µg/mL; in test [2], 0.236 µg/mL; in test [3], 0.0984 µg/mL.

B4: monoclonal antibody defined by SEQ ID 23 (LCVR) and SEQ ID 25 (HCVR) with a IgG4 (S241P) (antibody, V domains shown)
VH: EVQLVQSGSELKKPGASVKVSCKTSGYTFTEYTMHWVRQPHGKGLEWIGGIHPNSGGTSYNQRFKGRVTITVDKSTSTAYMELSSLRSEDTAVYYCARWTGDFDYWGQGTLVTVSS
VL: DIQMTQSPSAMSASVGDRVTITCKASQNVGTNVAWYQQKPGQPPKALIYSASYRYSGVPDRFSGSGSGTDFTLTISSLQAEDLAEYFCQQYQSYPYTFGQGTKLEIK
notes: also called VH4 N54S D56G / Vk3 N92Q IgG4 (S241P)
For B4, the Kd in test [5] was 0.3 nM.

B5: VH3 N54Q D56E / VK2 N92E (antibody, V domains shown)
VH: EVQLVQSGSELKKPGASVKISCKTSGYTFTEYTMHWVRQPHGKGLEWIGGIHPNQGETSYNQRFKGRVTLTVDKSTSTAYMELSSLRSEDTAVYYCARWTGDFDYWGQGTLVTVSS
VL: DIVMTQSPSAMSASVGDRVTITCKASQNVGTNVAWYQQKPGQPPKALIYSASYRYSGVPDRFTGSGSGTDFTLTISSLQAEDLAEYFCQQYESYPYTFGQGTKLEIK
notes: Humanized variant of Ab825; also called antibody (i)
With B5, the values for the concentration giving a half-maximal response (EC50) in test [1], in test [2] and in test [3] were 0.272 µg/mL, 0.226 µg/mL and 0.168 µg/mL, respectively.

B6: VH3 N54Q D56E / VK3 N92E (antibody, V domains shown)
VH: EVQLVQSGSELKKPGASVKISCKTSGYTFTEYTMHWVRQPHGKGLEWIGGIHPNQGETSYNQRFKGRVTLTVDKSTSTAYMELSSLRSEDTAVYYCARWTGDFDYWGQGTLVTVSS
VL: DIQMTQSPSAMSASVGDRVTITCKASQNVGTNVAWYQQKPGQPPKALIYSASYRYSGVPDRFSGSGSGTDFTLTISSLQAEDLAEYFCQQYESYPYTFGQGTKLEIK
notes: Humanized variant of Ab825; also called antibody (iii)
Regarding B6, the EC50 in test [1] was determined as 0.284 µg/mL; in test [2], 0.273 µg/mL; in test [3], 0.115 µg/mL.

B7: VH4 N54Q D56E / VK3 N92E (antibody, V domains shown)
VH: EVQLVQSGSELKKPGASVKVSCKTSGYTFTEYTMHWVRQPHGKGLEWIGGIHPNQGETSYNQRFKGRVTITVDKSTSTAYMELSSLRSEDTAVYYCARWTGDFDYWGQGTLVTVSS
VL: DIQMTQSPSAMSASVGDRVTITCKASQNVGTNVAWYQQKPGQPPKALIYSASYRYSGVPDRFSGSGSGTDFTLTISSLQAEDLAEYFCQQYESYPYTFGQGTKLEIK
notes: Humanized variant of Ab825; also called antibody (v)
As to B7, the half-maximal effective concentration (EC50) stood at 0.551 µg/mL in test [1], 0.629 µg/mL in test [2] and 0.097 µg/mL in test [3].

B8: VH4 N54Q D56E / VK3 N92Q (antibody, V domains shown)
VH: EVQLVQSGSELKKPGASVKVSCKTSGYTFTEYTMHWVRQPHGKGLEWIGGIHPNQGETSYNQRFKGRVTITVDKSTSTAYMELSSLRSEDTAVYYCARWTGDFDYWGQGTLVTVSS
VL: DIQMTQSPSAMSASVGDRVTITCKASQNVGTNVAWYQQKPGQPPKALIYSASYRYSGVPDRFSGSGSGTDFTLTISSLQAEDLAEYFCQQYQSYPYTFGQGTKLEIK
notes: Humanized variant of Ab825; also called antibody (viii)
Regarding B8, the concentration for a half-maximal effect (EC50) is 0.523 µg/mL in test [1], 0.48 µg/mL in test [2] and 0.108 µg/mL in test [3].

B9: VH4 N54S D56G / VK3 N92Q (antibody, V domains shown)
VH: EVQLVQSGSELKKPGASVKVSCKTSGYTFTEYTMHWVRQPHGKGLEWIGGIHPNSGGTSYNQRFKGRVTITVDKSTSTAYMELSSLRSEDTAVYYCARWTGDFDYWGQGTLVTVSS
VL: DIQMTQSPSAMSASVGDRVTITCKASQNVGTNVAWYQQKPGQPPKALIYSASYRYSGVPDRFSGSGSGTDFTLTISSLQAEDLAEYFCQQYQSYPYTFGQGTKLEIK
notes: Humanized variant of Ab825; also called antibody (ix); Sample 4
For the molecule B9, the EC50 in test [1] was 0.0932 µg/mL; in test [2], 0.0869 µg/mL; in test [3] it was 0.0446 µg/mL.

B10: VH4 N54S D56G / VK3 N92E (antibody, V domains shown)
VH: EVQLVQSGSELKKPGASVKVSCKTSGYTFTEYTMHWVRQPHGKGLEWIGGIHPNSGGTSYNQRFKGRVTITVDKSTSTAYMELSSLRSEDTAVYYCARWTGDFDYWGQGTLVTVSS
VL: DIQMTQSPSAMSASVGDRVTITCKASQNVGTNVAWYQQKPGQPPKALIYSASYRYSGVPDRFSGSGSGTDFTLTISSLQAEDLAEYFCQQYESYPYTFGQGTKLEIK
notes: Humanized variant of Ab825; also called antibody (vii)
As to B10, the concentration giving a half-maximal response (EC50) in test [1] was found to be 0.191 µg/mL; in test [2], 0.108 µg/mL; in test [3], 0.0563 µg/mL.

B11: VH3 N54S D56G / VK3 N92Q (antibody, V domains shown)
VH: EVQLVQSGSELKKPGASVKISCKTSGYTFTEYTMHWVRQPHGKGLEWIGGIHPNSGGTSYNQRFKGRVTLTVDKSTSTAYMELSSLRSEDTAVYYCARWTGDFDYWGQGTLVTVSS
VL: DIQMTQSPSAMSASVGDRVTITCKASQNVGTNVAWYQQKPGQPPKALIYSASYRYSGVPDRFSGSGSGTDFTLTISSLQAEDLAEYFCQQYQSYPYTFGQGTKLEIK
notes: Humanized variant of Ab825; also called antibody (iv); Sample 3
Regarding B11, the EC50 amounted to 0.0778 µg/mL in test [1], 0.0561 µg/mL in test [2] and 0.0381 µg/mL in test [3].

B12: VH3 N54S D56G / VK2 N92Q (antibody, V domains shown)
VH: EVQLVQSGSELKKPGASVKISCKTSGYTFTEYTMHWVRQPHGKGLEWIGGIHPNSGGTSYNQRFKGRVTLTVDKSTSTAYMELSSLRSEDTAVYYCARWTGDFDYWGQGTLVTVSS
VL: DIVMTQSPSAMSASVGDRVTITCKASQNVGTNVAWYQQKPGQPPKALIYSASYRYSGVPDRFTGSGSGTDFTLTISSLQAEDLAEYFCQQYQSYPYTFGQGTKLEIK
notes: Humanized variant of Ab825; also called antibody (ii); Sample 2
On to B12, for which the values for the half-maximal effective concentration (EC50) in test [1], in test [2] and in test [3] were 0.069 µg/mL, 0.0615 µg/mL and 0.0383 µg/mL, respectively.
